Assay results taken from patent US20230035659A1, “Compositions and Methods for TTR Gene Editing and Treating ATTR Amyloidosis Comprising a Corticosteroid or Use Thereof” (Intellia Therapeutics, Inc., priority 2019, published 2023).
Strand notation (5' to 3'): a small letter for the sugar, then the base; units joined by * are phosphorothioate-linked, units joined directly phosphodiester-linked; [ ] holds rarer units or linkages, { } end groups; capitals alone tell only the bases. m = 2'-O-methyl; r = 2'-OH (RNA)

How the values were obtained:
TTR = TTR editing in primary human hepatocytes treated with LNP formulated Spy Cas9 mRNA (SEQ ID NO: 2) and sgRNAs, 12.5 ng mRNA; format: cell-based; settings: for 12.5 ng mRNA, 3.9 nM sgRNA, Avg % Edit: LNP formulated Spy Cas9 mRNA (SEQ ID NO: 2) and sgRNA, 72 hours
Procedure: Primary liver hepatocytes. Primary human liver hepatocytes (PHH) and primary cynomolgus liver hepatocytes (PCH) (Gibco) were cultured per the manufacturer's protocol (Invitrogen, protocol 11.28.2012). In brief, the cells were thawed and resuspended in hepatocyte thawing medium with supplements (Gibco, Cat. CM7000) followed by centrifugation at 100 g for 10 minutes for human and 80 g for 4 minutes for cyno. The supernatant was discarded and the pelleted cells resuspended in hepatocyte plating medium plus supplement pack (Invitrogen, Cat. A1217601 and CM3000). Cells were counted and plated on Bio-coat collagen I coated 96-well plates (ThermoFisher, Cat. 877272) at a density of 33,000 cells/well for human or 60,000 cells/well for cyno (or 65,000 cells/well when assaying effects on TTR protein, described further below). Plated cells were allowed to settle and adhere for 6 or 24 hours in a tissue culture incubator at 37° C. and 5% CO2 atmosphere. After incubation cells were checked for monolayer formation and media was replaced with hepatocyte culture medium with serum-free supplement pack (Invitrogen, Cat. A1217601 and CM4000).
In general, the lipid nanoparticle components were dissolved in 100% ethanol with the lipid component of various molar ratios. The RNA cargos were dissolved in 25 mM citrate, 100 mM NaCl, pH 5.0, resulting in a concentration of RNA cargo of approximately 0.45 mg/mL. The LNPs were formulated with a lipid amine to RNA phosphate (N:P) molar ratio of about 4.5 or about 6, with the ratio of mRNA to gRNA at 1:1 by weight.
The LNPs were formed by microfluidic mixing of the lipid and RNA solutions using a Precision Nanosystems NanoAssemblr™ Benchtop Instrument, according to the manufacturer's protocol. A 2:1 ratio of aqueous to organic solvent was maintained during mixing using differential flow rates. After mixing, the LNPs were collected, diluted in water (approximately 1:1 v/v), held for 1 hour at room temperature, and further diluted with water (approximately 1:1 v/v) before final buffer exchange. The final buffer exchange into 50 mM Tris, 45 mM NaCl, 5% (w/v) sucrose, pH 7.5 (TSS) was completed with PD-10 desalting columns (GE). If required, formulations were concentrated by centrifugation with Amicon 100 kDa centrifugal filters (Millipore). The resulting mixture was then filtered using a 0.2 μm sterile filter. The final LNP was stored at −80° C. until further use.
Additional PCR was performed per the manufacturer's protocols (Illumina) to add chemistry for sequencing. The amplicons were sequenced on an Illumina MiSeq instrument. The reads were aligned to a reference genome (e.g., the human reference genome (hg38), the cynomologus reference genome (mf5), the rat reference genome (rn6), or the mouse reference genome (mm10)) after eliminating those having low quality scores. The resulting files containing the reads were mapped to the reference genome (BAM files), where reads that overlapped the target region of interest were selected and the number of wild type reads versus the number of reads which contain an insertion, substitution, or deletion was calculated.
The editing percentage (e.g., the “editing efficiency” or “percent editing” or “indel frequency”) is defined as the total number of sequence reads with insertions/deletions (“indels”) or substitutions over the total number of sequence reads, including wild type.
Lipid nanoparticle formulations of modified sgRNAs targeting human TTR and the cyno matched sgRNA sequences were tested on primary human hepatocytes and primary cyno hepatocytes in a dose response curve. Primary human and cyno hepatocytes were plated as described in Example 1. Both cell lines were incubated at 37° C., 5% CO2 for 24 hours prior to treatment with LNPs. The LNPs used in the experiments detailed in Tables 18-21 were prepared using the Nanoassemblr™ procedure, each containing the specified sgRNA and Cas9 mRNA (SEQ ID NO:2), each having Lipid. […]

TTR mRNA = TTR mRNA knockdown (quantitative PCR) in primary human hepatocytes treated with LNPs; format: cell-based; settings: PHH, gRNA:mRNA 1:2, 96 h, vs untreated control
Procedure: In one experiment, PHH were cultured and treated with LNPs comprising Cas9 mRNA (SEQ ID NO:1) and a gRNA of interest (See FIG. 29, Table 36), as described in Example 4. The LNPs were prepared using the cross-flow procedure described above and purified and concentrated using PD-10 columns and Amicon centrifugal filter units, respectively. The LNPs were formulated with an N:P ratio of 6.0 and contained Lipid A, Cholesterol, DSPC, and PEG2k-DMG in a 50:38:9:2 molar ratio, respectively. The LNPs comprised a gRNA:mRNA ratio of 1:2, and the cells were treated at a dose of 300 ng (with respect to the amount of mRNA cargo delivered).
(§1) Ninety-six (96) hours following LNP treatment (with biological triplicates for each condition), mRNA was purified from PHH cells using the Dynabeads mRNA DIRECT Kit (ThermoFisher Scientific) according to the manufacturer's protocol. Reverse Transcription (RT) was performed with Maxima reverse transcriptase (ThermoFisher Scientific) and a poly-dT primer. The resulting cDNA was purified with Ampure XP Beads (Agencourt). For Quantitative PCR, 2% of the purified cDNA was amplified with Taqman Fast Advanced Mastermix and 3 Taqman probe sets, TTR (Assay ID: Hs00174914_m1), GAPDH (Assay ID: Hs02786624_g1), and PPIB (Assay ID: Hs00168719_m1). The assays were run on the QuantStudio 7 Flex Real Time PCR System according to the manufacturer's instructions (Life Technologies). Relative expression of TTR mRNA was calculated by normalizing to the endogenous controls (GAPDH and PPIB) individually, and then averaged.
The groups in FIG. 29 and Table 36 are identified by the gRNA ID used in each LNP preparation.
In a separate experiment, TTR mRNA knockdown was evaluated following treatment with LNPs comprising G000480, G000486, and G000502. The LNPs were formulated and PHH were cultured and treated with the LNPs, each as described in the experiment above in this Example with the exception that the cells were treated at a dose of 100 ng (with respect to the amount of mRNA cargo delivered).
as §1, with “(single treatment” for “(with biological triplicates”, “the High Capacity cDNA Reverse Transcription Kit” for “Maxima reverse transcriptase”, “according to the manufacturer's instructions.” for “and a poly-dT primer. The resulting cDNA was purified with Ampure XP Beads (Agencourt).”, “the” for “the purified”
The groups in FIG. 30 and Table 37 are identified by the gRNA ID used in each LNP preparation.

[1] = LNP dose 300 ng mRNA cargo, biological triplicates
[2] = LNP dose 100 ng mRNA cargo, single treatment

| Molecule | 12.5 ng mRNA, 3.9 nM sgRNA, Avg % Edit (TTR) [%] | Avg % Knockdown (TTR mRNA) (TTR mRNA; [1]) [%] | Avg % Knockdown (TTR mRNA) (TTR mRNA; [2]) [%] | dose response curve of % editing (shape) (TTR; LNP formulated Spy Cas9 mRNA and sgRNA, 8 point 2-fold dose response starting at 100 ng mRNA) |
| --- | --- | --- | --- | --- |
| G000484: TTR sgRNA modified sequence, Human, SEQ ID NO: 91; guide sequence of CR003367 (nucleic acid) guide: mA*mG*mA*rCrArCrCrArArArUrCrUrUrArCrUrGrGrArGrUrUrUrUrArGrAmGmCmUmAmGmAmAmAmUmAmGmCrArArGrUrUrArArArArUrArArGrGrCrUrArGrUrCrCrGrUrUrArUrCrAmAmCmUmUmGmAmAmAmAmAmGmUmGmGmCmAmCmCmGmAmGmUmCmGmGmUmGmCmU*mU*mU*mU | 16.67 | 75.22 |  |  |
| G000499: TTR sgRNA modified sequence, Human, SEQ ID NO: 106; guide sequence of CR005303 (nucleic acid) guide: mU*mG*mA*rArUrCrCrArArGrUrGrUrCrCrUrCrUrGrArGrUrUrUrUrArGrAmGmCmUmAmGmAmAmAmUmAmGmCrArArGrUrUrArArArArUrArArGrGrCrUrArGrUrCrCrGrUrUrArUrCrAmAmCmUmUmGmAmAmAmAmAmGmUmGmGmCmAmCmCmGmAmGmUmCmGmGmUmGmCmU*mU*mU*mU | 16.07 | 91.38 |  |  |
| G000486: TTR sgRNA modified sequence, Human, SEQ ID NO: 93; guide sequence of CR003339 (nucleic acid) guide: mA*mC*mA*rCrArArArUrArCrCrArGrUrCrCrArGrCrArGrUrUrUrUrArGrAmGmCmUmAmGmAmAmAmUmAmGmCrArArGrUrUrArArArArUrArArGrGrCrUrArGrUrCrCrGrUrUrArUrCrAmAmCmUmUmGmAmAmAmAmAmGmUmGmGmCmAmCmCmGmAmGmUmCmGmGmUmGmCmU*mU*mU*mU | 61.33 |  | 97.36 |  |
| G000483: TTR sgRNA modified sequence, Human, SEQ ID NO: 90; guide sequence of CR005298 (nucleic acid) guide: mU*mC*mC*rArCrUrCrArUrUrCrUrUrGrGrCrArGrGrArGrUrUrUrUrArGrAmGmCmUmAmGmAmAmAmUmAmGmCrArArGrUrUrArArArArUrArArGrGrCrUrArGrUrCrCrGrUrUrArUrCrAmAmCmUmUmGmAmAmAmAmAmGmUmGmGmCmAmCmCmGmAmGmUmCmGmGmUmGmCmU*mU*mU*mU | 7.37 | 68.78 |  |  |
| G000570: TTR sgRNA modified sequence, Human, SEQ ID NO: 111; guide sequence of CR003347 (nucleic acid) guide: mC*mA*mU*rUrGrArUrGrGrCrArGrGrArCrUrGrCrCrUrGrUrUrUrUrArGrAmGmCmUmAmGmAmAmAmUmAmGmCrArArGrUrUrArArArArUrArArGrGrCrUrArGrUrCrCrGrUrUrArUrCrAmAmCmUmUmGmAmAmAmAmAmGmUmGmGmCmAmCmCmGmAmGmUmCmGmGmUmGmCmU*mU*mU*mU | 88.30 | 93.38 |  | uncharacteristic dose response curve |
| G000494: TTR sgRNA modified sequence, Human, SEQ ID NO: 101; guide sequence of CR003360 (nucleic acid) guide: mG*mU*mG*rArGrUrCrUrGrGrArGrArGrCrUrGrCrArUrGrUrUrUrUrArGrAmGmCmUmAmGmAmAmAmUmAmGmCrArArGrUrUrArArArArUrArArGrGrCrUrArGrUrCrCrGrUrUrArUrCrAmAmCmUmUmGmAmAmAmAmAmGmUmGmGmCmAmCmCmGmAmGmUmCmGmGmUmGmCmU*mU*mU*mU | 6.37 | 91.15 |  |  |
| G000488: TTR sgRNA modified sequence, Human, SEQ ID NO: 95; guide sequence of CR003346 (nucleic acid) guide: mA*mA*mA*rGrUrUrCrUrArGrArUrGrCrUrGrUrCrCrGrGrUrUrUrUrArGrAmGmCmUmAmGmAmAmAmUmAmGmCrArArGrUrUrArArArArUrArArGrGrCrUrArGrUrCrCrGrUrUrArUrCrAmAmCmUmUmGmAmAmAmAmAmGmUmGmGmCmAmCmCmGmAmGmUmCmGmGmUmGmCmU*mU*mU*mU | 44.80 | 92.77 |  |  |
| G000480: TTR sgRNA modified sequence, Human, SEQ ID NO: 87; guide sequence of CR003353 (nucleic acid) guide: mA*mA*mA*rGrGrCrUrGrCrUrGrArUrGrArCrArCrCrUrGrUrUrUrUrArGrAmGmCmUmAmGmAmAmAmUmAmGmCrArArGrUrUrArArArArUrArArGrGrCrUrArGrUrCrCrGrUrUrArUrCrAmAmCmUmUmGmAmAmAmAmAmGmUmGmGmCmAmCmCmGmAmGmUmCmGmGmUmGmCmU*mU*mU*mU | 59.33 | 95.19 | 95.61 |  |
| G000502: TTR Cyno specific sgRNA modified sequence, SEQ ID NO: 114; guide sequence of CR000689; cross homologous between mouse and cyno (nucleic acid) guide: mA*mC*mA*rCrArArArUrArCrCrArGrUrCrCrArGrCrGrGrUrUrUrUrArGrAmGmCmUmAmGmAmAmAmUmAmGmCrArArGrUrUrArArArArUrArArGrGrCrUrArGrUrCrCrGrUrUrArUrCrAmAmCmUmUmGmAmAmAmAmAmGmUmGmGmCmAmCmCmGmAmGmUmCmGmGmUmGmCmU*mU*mU*mU |  |  | 90.94 |  |
| G000482: TTR sgRNA modified sequence, Human, SEQ ID NO: 89; guide sequence of CR003365 (nucleic acid) guide: mU*mG*mU*rArGrArArGrGrGrArUrArUrArCrArArArGrGrUrUrUrUrArGrAmGmCmUmAmGmAmAmAmUmAmGmCrArArGrUrUrArArArArUrArArGrGrCrUrArGrUrCrCrGrUrUrArUrCrAmAmCmUmUmGmAmAmAmAmAmGmUmGmGmCmAmCmCmGmAmGmUmCmGmGmUmGmCmU*mU*mU*mU | 19.10 | 82.31 |  |  |
